{
  "source": "patent US8119387B2",
  "about": "“Polypeptides of strain Bacillus sp. P203” (Novozymes A/S, priority 2005, dated 2012)",
  "key": {"[1]": {"target": "recombinant carbonic anhydrase (SEQ ID NO: 4) from Bacillus sp. P203 (Alkalicoccobacillus plakortidis, UniProt A0ABT0XM38)", "sequence (A0ABT0XM38 entry or part of it)": "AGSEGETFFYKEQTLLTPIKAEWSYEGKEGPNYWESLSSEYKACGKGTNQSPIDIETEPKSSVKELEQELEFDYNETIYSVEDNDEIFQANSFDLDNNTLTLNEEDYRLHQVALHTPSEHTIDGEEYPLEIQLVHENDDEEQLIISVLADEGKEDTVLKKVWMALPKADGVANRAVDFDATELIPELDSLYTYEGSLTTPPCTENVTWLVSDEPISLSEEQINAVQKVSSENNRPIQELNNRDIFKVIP", "settings": "read-out: IC50, inhibition of recombinant carbonic anhydrase; purified recombinant enzyme from Bacillus sp. P203", "experimental": "A standard assay contained 900 microliter of PNPA, 10 microliter of 300 mM Tris pH 7.5 and 90 microliter of carbonic anhydrase protein solution. After a pre-incubation for 5 min, the enzyme was added to the PNPA buffer mixture and the increase in absorbance (due to the hydrolysis of the substrate and release of p-nitrophenol) at 348 nm was monitored photometrically in a quartz cuvette over a period of 10 min. As a positive control for both activity assays, a solution of bovine carbonic anhydrase (Calbiochem, 1 mg per mL) may be used.\nEnzyme was pre-incubated with 1 mM of the substances for 1 h on ice in a total volume of 50 micro liter before testing activity with 10 micro liter of the mixture with the Wilbur and Anderson, 1948 method. The control with no additives (water) was set to 100% activity. […] Instead activity with 25 micro molar concentration of the chemicals are given."}, "[2]": {"experiment": "Temperature and storage stability of purified recombinant carbonic anhydrase (residual activity)", "type": "physicochemical", "method": "The carbonic anhydrase activity was determined according to Wilbur. […] 147-154. […] (see FIG. 2)."}},
  "data": [
    {"molecule": "[N-]=[N+]=[N-]", "note": "[azide]", "values": [
      {"measurement": "IC50", "setting": "[1]", "result": 500, "unit": "µM"}
    ]},
    {"molecule": "recombinant carbonic anhydrase: purified recombinant carbonic anhydrase (SEQ ID NO: 4) from strain Bacillus sp. P203 (protein, Bacillus sp. P 203, P203) MRKTNVLLKSTMITTLLLSSTLLVTTPIYAHTETQQLSYKTLNDLLTEDGHSGWSYSGLTGPEYWGELNEDYKACSKGEEQSPIALQNEDIDNEKWSFDLDYEETEFSIENNGHTIQANVEGSSSNTLLLNDTEYNLVQFHFHSPSEHTLDDEYFEMEVHLVHQDEHANLAVLGVLIEEGEQNETLTDMWELMPGQQGEAAERITLNPSELVPSDLSTFQYDGSLTTPPCSEDVKWSVSDSTISLSPEQLEAFQDLYPNNYRPIQDLGNREVGFHY", "values": [
      {"measurement": "activity remaining after storage", "setting": "[2]; 4° C. in buffer F for a week", "result": "97+/−4 % of original activity"},
      {"measurement": "effect of storage with DTT on stability", "setting": "[2]; buffer F supplemented with 1 mM dithiothreitol (DTT)", "result": "stabilize the enzyme"},
      {"measurement": "activity remaining after storage", "setting": "[2]; room temperature (20° C.), buffer F", "result": "95+/−4 % of original activity"},
      {"measurement": "stability at elevated temperature", "setting": "[2]; temperatures over 37° C., tested 4-60° C. for 1 and 17 h (FIG. 2)", "result": "rapidly decreased"},
      {"measurement": "activity remaining after storage", "setting": "[2]; −20° C. for one week in buffer F", "result": "99+/−4 % of original activity"}
    ]}
  ]
}
